# From article PMC8080067, “Tight binding of cytochrome b5 to cytochrome P450 17A1 is a critical feature of stimulation of C21 steroid lyase activity and androgen synthesis” (The Journal of Biological Chemistry, 2021)
# T1: WT P450 17A1 (Homo sapiens, UniProt P05093)
# T1 sequence (P05093 1-508): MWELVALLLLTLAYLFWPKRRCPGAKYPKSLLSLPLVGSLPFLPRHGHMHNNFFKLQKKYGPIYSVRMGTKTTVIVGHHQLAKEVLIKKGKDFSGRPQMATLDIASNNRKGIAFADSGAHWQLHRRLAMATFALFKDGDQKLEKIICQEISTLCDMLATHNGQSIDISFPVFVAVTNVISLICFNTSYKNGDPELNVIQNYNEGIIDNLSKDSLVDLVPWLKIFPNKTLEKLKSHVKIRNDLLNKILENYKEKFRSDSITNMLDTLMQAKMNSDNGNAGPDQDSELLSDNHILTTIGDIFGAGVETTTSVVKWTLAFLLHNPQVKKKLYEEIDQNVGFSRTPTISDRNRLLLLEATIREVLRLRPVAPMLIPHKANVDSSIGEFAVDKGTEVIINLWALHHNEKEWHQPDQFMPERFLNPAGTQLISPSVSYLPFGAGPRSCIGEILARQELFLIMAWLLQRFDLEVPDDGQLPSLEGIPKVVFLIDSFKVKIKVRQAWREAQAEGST
# T2: P450 17A1 R358Q variant (Homo sapiens, UniProt P05093, R358Q)
# T2 sequence (P05093 1-508 R358Q): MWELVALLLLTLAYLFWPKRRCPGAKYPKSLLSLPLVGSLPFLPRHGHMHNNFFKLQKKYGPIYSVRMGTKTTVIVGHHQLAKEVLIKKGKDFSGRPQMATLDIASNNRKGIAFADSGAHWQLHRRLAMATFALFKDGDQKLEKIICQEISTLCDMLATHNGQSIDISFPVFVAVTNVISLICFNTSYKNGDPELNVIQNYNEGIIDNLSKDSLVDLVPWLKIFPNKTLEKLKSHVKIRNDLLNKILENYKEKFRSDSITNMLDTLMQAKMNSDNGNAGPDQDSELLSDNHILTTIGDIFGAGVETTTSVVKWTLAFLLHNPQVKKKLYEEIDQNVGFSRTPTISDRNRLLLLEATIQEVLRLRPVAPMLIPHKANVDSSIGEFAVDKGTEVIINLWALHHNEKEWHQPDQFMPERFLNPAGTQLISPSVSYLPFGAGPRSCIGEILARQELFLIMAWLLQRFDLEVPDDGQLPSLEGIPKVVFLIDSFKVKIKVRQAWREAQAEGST
# T3: P450 17A1 R347H variant (Homo sapiens, UniProt P05093, R347H)
# T3 sequence (P05093 1-508 R347H): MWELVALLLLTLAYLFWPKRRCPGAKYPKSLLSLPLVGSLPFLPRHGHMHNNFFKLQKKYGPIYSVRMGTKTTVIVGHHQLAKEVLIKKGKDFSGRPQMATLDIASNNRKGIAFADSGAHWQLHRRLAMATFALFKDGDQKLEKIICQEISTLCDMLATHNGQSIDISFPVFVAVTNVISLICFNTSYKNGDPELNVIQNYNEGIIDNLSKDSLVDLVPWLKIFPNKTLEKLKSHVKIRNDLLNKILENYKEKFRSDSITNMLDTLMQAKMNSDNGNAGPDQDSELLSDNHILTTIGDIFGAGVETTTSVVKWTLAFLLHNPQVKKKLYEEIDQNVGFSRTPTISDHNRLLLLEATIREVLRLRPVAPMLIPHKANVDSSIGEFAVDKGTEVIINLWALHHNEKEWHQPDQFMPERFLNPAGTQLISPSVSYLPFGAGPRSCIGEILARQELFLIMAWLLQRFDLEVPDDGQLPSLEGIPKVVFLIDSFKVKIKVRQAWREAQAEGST
# B1: b5: recombinant human cytochrome b5, unlabeled (protein)
# chain: MAEQSDEAVKYYTLEEIQKHNHSKSTWLILHHKVYDLTKFLEEHPGGEEVLREQAGGDATENFEDVGHSTDAREMSKTFIIGELHPDDRPKLNKPPETLITTIDSSSS
# Legend:
# WT P450 17A1 = molecular target: T1, WT P450 17A1; assay type: biochemical; parameters: made in house; host or cells: Escherichia coli (P450 17A1 in JM109)
# Experimental: Figure S4. Stimulation of lyase activities by b5, T70C- b5, and NanoTemper Blue-T70C-b5. Catalytic assays for the lyase reactions were performed and analyzed as described in the main text.
# P450 17A1 = test system: P450 17A1; parameters: method as in PMID 30468857; conditions: SPR; cited from earlier work
# P450 17A1 R358Q variant = molecular target: T2, P450 17A1 R358Q variant
# Experimental: (§1) P450 catalytic activity assays to measure steroid hydroxylation and lyase reactions were carried out as described previously ([23], [37], [64]).
# (§2) The reactions were initiated by adding an NADPH-regenerating system (final concentrations of 15 mM glucose 6-phosphate, 1.5 mM NADP^+, and 1 IU ml^−1 glucose 6-phosphate dehydrogenase) ([75]) and terminated by quenching and extracting with 2.0 ml CH2Cl2. Aliquots of the organic phases were dried and then dissolved in 100 μl of a CH3CN/H2O (1:1, v/v) mixture. […] The extraction procedure was then repeated, and the (Δ^4) reaction products were analyzed in a Waters Acquity UPLC system using a BEH C18 octadecylsilane column (2.1 mm × 100 mm, 1.7 μm). The reaction products were resolved using a mobile phase composed of solvents A (70% CH3OH, 30% H2O, v/v) and B (CH3CN), at a flow rate of 0.2 ml min^−1. The mobile phase linear gradient proceeded as follows: 0 to 1 min, 5% B; 4 min, 30% B; 4.5 min, 40% B; 4.55 to 6.75 min, 95% BA; and 7 to 10 min, 5% B. The reaction products were identified by coelution with commercial standards and quantified by the A243 peak areas. Steady-state kinetic parameters were estimated using nonlinear regression of hyperbolic fits in GraphPad Prism software, with equations used for kcat and the specificity constant kcat/Km ([76]): Y = (ksp ∗ X)/(1 + (ksp ∗ X/kcat)) and then deriving Km by division.
# P450 17A1 R347H variant = molecular target: T3, P450 17A1 R347H variant
# Experimental: as §1, §2
molecule,measurement,setting,value
B1,stimulation of lyase activities,WT P450 17A1,stimulated by b5 in a concentration-dependent manner
same,on-rate constants,P450 17A1,360 to 5000 M⁻¹ s⁻¹
same,stimulation of lyase reactions,P450 17A1 R358Q variant,did not display b5 concentration-dependent stimulation
same,stimulation of lyase reactions,P450 17A1 R347H variant,did not display b5 concentration-dependent stimulation
